Measured values reported in paper PMC7672459, “Detection of genomic G-quadruplexes in living cells using a small artificial protein”.

How the values were obtained:
G4P [1] = target: T1, G4P (artificial (RHAU-derived), UniProt Q9H2U1 53-75); assay: competition; competitor of FAM c-KIT/KRAS G4; EMSA: 20 mM Tris-HCl pH 7.4, 75 mM KCl, 1 mM EDTA, 0.4 mg/ml BSA, 10 nM DNA, 4 C (or 37 C), 1 h; dsDNA with 30% PEG 200; pull-down: 20 mM Tris-HCl pH 7.4, 150 mM KCl, 1 mM EDTA, 0.5% Triton X-100, 4 C; settings: protein: recombinant; tags: N-terminal HIS; C-terminal GTGSGA-3xFLAG; label: 5' FAM; parallel G4
T1 chain: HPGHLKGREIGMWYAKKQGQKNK

G4P [2] = target: T1, G4P; assay: EMSA; K+; only 20% of DNA bound at saturation; low-nM Kd, number only in figure; EMSA: 20 mM Tris-HCl pH 7.4, 75 mM KCl, 1 mM EDTA, 0.4 mg/ml BSA, 10 nM DNA, 4 C (or 37 C), 1 h; dsDNA with 30% PEG 200; pull-down: 20 mM Tris-HCl pH 7.4, 150 mM KCl, 1 mM EDTA, 0.5% Triton X-100, 4 C; settings: protein: recombinant, tags: N-terminal HIS, C-terminal GTGSGA-3xFLAG, label: 5' FAM
G4P [3] = target: T1, G4P; assay: EMSA; K+; two distinct Kd values, numbers only in figure; EMSA: 20 mM Tris-HCl pH 7.4, 75 mM KCl, 1 mM EDTA, 0.4 mg/ml BSA, 10 nM DNA, 4 C (or 37 C), 1 h; dsDNA with 30% PEG 200; pull-down: 20 mM Tris-HCl pH 7.4, 150 mM KCl, 1 mM EDTA, 0.5% Triton X-100, 4 C; settings: protein: recombinant; tags: N-terminal HIS; C-terminal GTGSGA-3xFLAG; label: 5' FAM; parallel broken-strand G4

TTCGGGCGGGCGCGAGGGAGGGTTTT (structured_DNA) [c-KIT]
binding result (G4P [1]): binds

AGGGCGGTGTGGGAAGAGGGAAGAGGGGGAGG (structured_DNA) [KRAS]
binding result (G4P [1]): binds

GGGGCCGGGGCCGGGGCCGGGGCC (structured_DNA) [C9orf72]
binding result (G4P [2]; antiparallel G4, hairpin in equilibrium): binds

GGTTAGGGTTAGGGTTAGGGTTAGGGTTAG (structured_DNA) [Tel]
binding result (G4P [2]; mixed parallel/antiparallel G4): binds

AAGGGAGGGCGGCGGGGCAGGGA (structured_DNA) [PDGFR-beta]
binding result (G4P [3]): binds
